Molecular target: T1, PUF4 RNA-binding domain (Saccharomyces cerevisiae, UniProt P25339 537-888)
T1 sequence: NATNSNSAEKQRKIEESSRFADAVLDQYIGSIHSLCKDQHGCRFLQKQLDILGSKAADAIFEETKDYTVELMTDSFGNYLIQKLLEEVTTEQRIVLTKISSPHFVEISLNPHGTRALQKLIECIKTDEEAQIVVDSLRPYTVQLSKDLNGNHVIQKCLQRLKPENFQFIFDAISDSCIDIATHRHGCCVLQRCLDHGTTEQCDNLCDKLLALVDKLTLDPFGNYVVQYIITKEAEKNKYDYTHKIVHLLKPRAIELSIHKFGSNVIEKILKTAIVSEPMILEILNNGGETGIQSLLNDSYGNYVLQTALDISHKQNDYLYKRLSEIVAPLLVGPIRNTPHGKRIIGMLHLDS
Assay: Mg; RNA-MaP; 20 mM Na-HEPES pH 7.4, 30 mM KOAc, 0.75 mM MgCl2, 0.1% Tween-20, 5% glycerol, 0.1 mg/mL BSA, 2 mM DTT; 25 C; 0.0125-409.6 nM protein
Conditions: tags: N-His6-TEV cleaved; C-SNAP kept, Cy3B-labelled; label: tethered on chip by stalled RNA polymerase

B1: Id_ii_S2_P5E.3_K5.2_C5.2_[C-2G]_[T-1C]_H5.2_A5.1_F5.1_T5.2_[T11C] (ssRNA)
RNA: UUUGAUUAAUAUGAUAUCGUUCUUUCUGCUAUAUUAUUACAUUCUUUCUCGAUAUCAUAUUAAUCUUU
B1 was tested, and the Kd was 546 nM.

B2: Id_ii_S2_P5E.3_K5.2_C5.2_[C-2G]_H5.2_A5.1_F5.1_T5.2_[A12C] (ssRNA)
RNA: UUUGAUUAAUAUGAUAUCGUUCUUUCUGUUAUAUUAUUAUCUUCUUUCUCGAUAUCAUAUUAAUCUUU
In the case of B2, the Kd is reported as 16 nM.

B3: Id_ii_S2_P5E.3_K5.2_C5.2_[C-2T]_[T-1C]_H5.2_A5.1_F5.1_T5.2_[T11A]_[A12G] (ssRNA)
RNA: UUUGAUUAAUAUGAUAUCGUUCUUUCUUCUAUAUUAUUAAGUUCUUUCUCGAUAUCAUAUUAAUCUUU
B3 gave a Kd of over 2300 nM.

B4: Id_ii_S2_P5E.3_K5.2_C5.2_[C-2T]_[T-1A]_H5.2_A5.1_F5.1_T5.2_[T11A]_[A12C] (ssRNA)
RNA: UUUGAUUAAUAUGAUAUCGUUCUUUCUUAUAUAUUAUUAACUUCUUUCUCGAUAUCAUAUUAAUCUUU
Binder B4 has a Kd of 9.27 nM.

B5: Id_ii_S2_P5E.3_K5.2_C5.2_[C-2T]_[T-1A]_H5.2_A5.1_F5.1_T5.2_[T11C] (ssRNA)
RNA: UUUGAUUAAUAUGAUAUCGUUCUUUCUUAUAUAUUAUUACAUUCUUUCUCGAUAUCAUAUUAAUCUUU
Binder B5 has a Kd of 14.5 nM.

B6: Id_ii_S2_P5E.3_K5.2_C5.2_[C-2T]_[T-1C]_H5.2_A5.1_F5.1_T5.2_[T11A] (ssRNA)
RNA: UUUGAUUAAUAUGAUAUCGUUCUUUCUUCUAUAUUAUUAAAUUCUUUCUCGAUAUCAUAUUAAUCUUU
B6 was tested, and the Kd was 220 nM.

B7: Id_ii_S2_P5E.3_K5.2_C5.2_[C-2T]_[T-1A]_H5.2_A5.1_F5.1_T5.2_[T11G]_[A12C] (ssRNA)
RNA: UUUGAUUAAUAUGAUAUCGUUCUUUCUUAUAUAUUAUUAGCUUCUUUCUCGAUAUCAUAUUAAUCUUU
In the case of B7, the Kd is reported as 13.9 nM.

B8: Id_ii_S2_P5E.3_K5.2_C5.2_[C-2G]_[T-1C]_H5.2_A5.1_F5.1_T5.2_[T11A] (ssRNA)
RNA: UUUGAUUAAUAUGAUAUCGUUCUUUCUGCUAUAUUAUUAAAUUCUUUCUCGAUAUCAUAUUAAUCUUU
Binder B8 has a Kd of 394 nM.

B9: Id_ii_S2_P5E.3_K5.2_C5.2_[C-2T]_[T-1G]_H5.2_A5.1_F5.1_T5.2_[T11G]_[A12C] (ssRNA)
RNA: UUUGAUUAAUAUGAUAUCGUUCUUUCUUGUAUAUUAUUAGCUUCUUUCUCGAUAUCAUAUUAAUCUUU
B9 was tested, and the Kd was 0.514 nM.

B10: Id_ii_S2_P5E.3_K5.2_C5.2_[C-2T]_[T-1G]_H5.2_A5.1_F5.1_T5.2_[A12T] (ssRNA)
RNA: UUUGAUUAAUAUGAUAUCGUUCUUUCUUGUAUAUUAUUAUUUUCUUUCUCGAUAUCAUAUUAAUCUUU
B10 gave a Kd of 0.297 nM.

B11: Id_ii_S2_P5E.3_K5.2_C5.2_[C-2G]_[T-1C]_H5.2_A5.1_F5.1_T5.2_[A12T] (ssRNA)
RNA: UUUGAUUAAUAUGAUAUCGUUCUUUCUGCUAUAUUAUUAUUUUCUUUCUCGAUAUCAUAUUAAUCUUU
B11 was tested, and the Kd was 92.5 nM.

B12: Id_ii_S2_P5E.3_K5.2_C5.2_[C-2T]_[T-1A]_H5.2_A5.1_F5.1_T5.2_[T11A]_[A12T] (ssRNA)
RNA: UUUGAUUAAUAUGAUAUCGUUCUUUCUUAUAUAUUAUUAAUUUCUUUCUCGAUAUCAUAUUAAUCUUU
B12 showed a Kd of 21 nM.

B13: Id_ii_S2_P5E.3_K5.2_C5.2_[C-2T]_[T-1G]_H5.2_A5.1_F5.1_T5.2_[T11G]_[A12T] (ssRNA)
RNA: UUUGAUUAAUAUGAUAUCGUUCUUUCUUGUAUAUUAUUAGUUUCUUUCUCGAUAUCAUAUUAAUCUUU
Binder B13 has a Kd of 0.685 nM.

B14: Id_ii_S2_P5E.3_K5.2_C5.2_[C-2T]_[T-1C]_H5.2_A5.1_F5.1_T5.2_[T11C]_[A12C] (ssRNA)
RNA: UUUGAUUAAUAUGAUAUCGUUCUUUCUUCUAUAUUAUUACCUUCUUUCUCGAUAUCAUAUUAAUCUUU
Binder B14 has a Kd of 65.6 nM.

B15: Id_ii_S2_P5E.3_K5.2_C5.2_[C-2T]_[T-1C]_H5.2_A5.1_F5.1_T5.2_[T11C]_[A12G] (ssRNA)
RNA: UUUGAUUAAUAUGAUAUCGUUCUUUCUUCUAUAUUAUUACGUUCUUUCUCGAUAUCAUAUUAAUCUUU
B15 showed a Kd of 419 nM.

B16: Id_ii_S2_P5E.3_K5.2_C5.2_[C-2T]_[T-1G]_H5.2_A5.1_F5.1_T5.2_[T11A] (ssRNA)
RNA: UUUGAUUAAUAUGAUAUCGUUCUUUCUUGUAUAUUAUUAAAUUCUUUCUCGAUAUCAUAUUAAUCUUU
B16 showed a Kd of 0.435 nM.

B17: Id_ii_S2_P5E.3_K5.2_C5.2_[C-2T]_[T-1G]_H5.2_A5.1_F5.1_T5.2_[A12C] (ssRNA)
RNA: UUUGAUUAAUAUGAUAUCGUUCUUUCUUGUAUAUUAUUAUCUUCUUUCUCGAUAUCAUAUUAAUCUUU
With B17 the Kd was 0.994 nM.

B18: Id_ii_S2_P5E.3_K5.2_C5.2_[C-2G]_H5.2_A5.1_F5.1_T5.2_[T11C]_[A12C] (ssRNA)
RNA: UUUGAUUAAUAUGAUAUCGUUCUUUCUGUUAUAUUAUUACCUUCUUUCUCGAUAUCAUAUUAAUCUUU
In the case of B18, the Kd is reported as 14.9 nM.

B19: Id_ii_S2_P5E.3_K5.2_C5.2_[C-2T]_H5.2_A5.1_F5.1_T5.2_[T11G]_[A12T] (ssRNA)
RNA: UUUGAUUAAUAUGAUAUCGUUCUUUCUUUUAUAUUAUUAGUUUCUUUCUCGAUAUCAUAUUAAUCUUU
B19 gave a Kd of 442 nM.

B20: Id_ii_S2_P5E.3_K5.2_C5.2_[C-2T]_[T-1C]_H5.2_A5.1_F5.1_T5.2_[A12T] (ssRNA)
RNA: UUUGAUUAAUAUGAUAUCGUUCUUUCUUCUAUAUUAUUAUUUUCUUUCUCGAUAUCAUAUUAAUCUUU
B20 gave a Kd of 80.1 nM.

B21: Id_ii_S2_P5E.3_K5.2_C5.2_[C-2T]_[T-1C]_H5.2_A5.1_F5.1_T5.2_[T11A]_[A12C] (ssRNA)
RNA: UUUGAUUAAUAUGAUAUCGUUCUUUCUUCUAUAUUAUUAACUUCUUUCUCGAUAUCAUAUUAAUCUUU
Work on B21 yielded a Kd of 94.7 nM.

B22: Id_ii_S2_P5E.3_K5.2_C5.2_[C-2T]_H5.2_A5.1_F5.1_T5.2_[T11G]_[A12C] (ssRNA)
RNA: UUUGAUUAAUAUGAUAUCGUUCUUUCUUUUAUAUUAUUAGCUUCUUUCUCGAUAUCAUAUUAAUCUUU
B22 gave a Kd of 219 nM.

— publication PMC9352680, “A comprehensive thermodynamic model for RNA binding by the Saccharomyces cerevisiae Pumilio protein PUF4”
